Laboratory results as given in paper PMC6362458 (Journal of the American Chemical Society, 2017).

Columns and labels:
[1] = cited from earlier work
[2] = Isoelectric point determination by IEF gel electrophoresis; assay type: physicochemical; conditions: data not shown
[3] = Visual precipitation on pH shift and clarification on photolysis; assay type: physicochemical; conditions: 75µM, 10 minutes 365nm LED (1.84 mW/cm^2)
[4] = Photolysis of P2-insulin suspension in pH 7.2 PBS; assay type: physicochemical
[5] = 2 h

| Substance | pI (isoelectric point) [1] | pI of insulin reacted with uncharged DMNPE derivative vs native insulin [2] | Appearance of pH 7.2 suspension after irradiation [3] | Insulin released from unirradiated control suspension ([4]; pH 7.2 PBS suspension processed identically, no 365 nm irradiation, IEF gel) | P2-insulin in supernatant of irradiated suspension ([4]; pH 7.2 PBS, IEF gel of supernatant) | Solubility at pH 4 [5] [µM] |
| --- | --- | --- | --- | --- | --- | --- |
| insulin | 5.4 | 5.4 | – | – | – | – |
| P2-Insulin: insulin with two pyrrolidines linked via the photocleavable DMNPE group; likely mixture of modified carboxyl sites | – | – | substantially clarified the suspension | no insulin released | no detectable P2-insulin | 216 |
